Where no end group is shown, it is not given here.
Columns and labels:
[1] = target: T1, Recombinant Human PD-1 protein (PD1-H5221, Acro Biosystems) (human, UniProt Q15116 25-167); assay: SPR (Biacore T100), recombinant human PD-1 coupled to a CM5 chip, peptide as analyte at 0.03125-2 µM
T1 construct: Bought reagent, amine-coupled to a CM5 chip for SPR
Method: (§1) The affinity of the peptides was tested with Biocore T100 through surface plasmon resonance (SPR) technique. […] Finally, the affinities (Kd-value) of the peptides were calculated by fitting curves in the sensor diagram in Biacore software.

[2] = target: T1, Recombinant Human PD-1 protein …; assay: SPR (Biacore T100), recombinant human PD-1 coupled to CM5 chip, peptide as analyte
Method: as §1

[3] = target: T2, Recombinant Human PD-L1 protein (PD1-H82F3, Acro Biosystems) (human, UniProt Q9NZQ7 19-238); assay: SPR (Biacore T100), recombinant human PD-L1 coupled to CM5 chip, peptide as analyte
T2 construct: Bought reagent
Method: as §1

[4] = target: T2, Recombinant Human PD-L1 protein …; assay: SPR (Biacore T100), recombinant human PD-L1 coupled to a CM5 chip, peptide as analyte at 0.03125-2 µM
Method: as §1

[5] = target: T3, PD-1 on the surface of cells (Jurkat T cells stimulated with PMA and ionomycin; iCIKs) (human, UniProt Q15116 25-288); assay: flow cytometry blocking assay: peptide mixed with recombinant human PD-L1, PD-L1 binding to PD-1-expressing stimulated Jurkat T cells read with APC streptavidin
T3 construct: whole, on cells; Endogenous PD-1 of human cells; also called PD-1 on the surface of Jurkat T cells; PD-1-expressing Jurkat T cells
Method: (§2) The Jurkat T cells were divided into two groups, an experimental group and a control group, wherein in the experimental group, 50 ng/ml of Phorbol 12-myristate 13-acetate (PAM) and 1 ug/ml of Ionomycin Calcium Salt (Ionomycin) were used to stimulate the cells, and in the control group, Jurkat T cells were unstimulated. The cells (5×10⁵) were collected in each tube, and washed once with FACS buffer (PBS with 2% BSA). […] FACS buffer was used for washing the cells three times, and 0.12 ug/ml of APC Streptavidin (405207, Biolegend) was added to each tube and the incubation was performed for 1 hour at 4° C., and then the cells were washed three times with FACS buffer again, and 500 μl of PBS was added to resuspend the cells, which were further transferred to flow tubes and analyzed by flow cytometry.

[6] = target: T1, Recombinant Human PD-1 protein …; assay: SPR (Biacore T100), recombinant human PD-1 coupled to a CM5 chip, peptide as analyte at 0.3125-20 µM
Method: as §1

[7] = target: T3, PD-1 on the surface of cells (Jurkat T …); assay: flow cytometry blocking assay: peptide mixed with recombinant human PD-L1, PD-L1 binding to PD-1-expressing stimulated Jurkat T cells read with APC streptavidin; nABP486 also binds PD-L1 itself (Figure 2D)
Method: as §2

T3 sequence (Q15116 25-288): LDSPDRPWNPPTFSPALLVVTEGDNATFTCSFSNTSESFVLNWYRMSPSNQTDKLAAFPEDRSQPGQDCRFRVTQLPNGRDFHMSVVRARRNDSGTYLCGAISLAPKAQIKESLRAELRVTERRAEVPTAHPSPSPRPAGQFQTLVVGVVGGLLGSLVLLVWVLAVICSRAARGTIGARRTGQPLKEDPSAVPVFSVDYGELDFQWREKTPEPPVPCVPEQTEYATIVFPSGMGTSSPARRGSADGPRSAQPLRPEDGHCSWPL
T2 sequence (Q9NZQ7 19-238 limits assumed): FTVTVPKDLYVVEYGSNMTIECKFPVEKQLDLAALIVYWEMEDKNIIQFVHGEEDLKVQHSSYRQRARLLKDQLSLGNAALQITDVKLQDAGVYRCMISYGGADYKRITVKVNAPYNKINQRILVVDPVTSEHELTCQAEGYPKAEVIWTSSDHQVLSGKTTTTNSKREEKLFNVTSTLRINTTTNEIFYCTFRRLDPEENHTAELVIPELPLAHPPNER
T1 sequence (Q15116 25-167 limits assumed): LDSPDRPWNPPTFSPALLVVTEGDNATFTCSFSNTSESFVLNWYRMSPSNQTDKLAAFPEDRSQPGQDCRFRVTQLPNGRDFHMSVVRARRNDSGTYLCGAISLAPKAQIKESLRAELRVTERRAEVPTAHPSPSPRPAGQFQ

Binder	koff [1]	kon [1]	Kd [2]	Kd [3]	koff [4]	kon [4]	IC50 [5]	Kd [6]	IC50 [7]	Kd [4]
SRLKEIANSPTQFWRMVARNTLGGAKQSLNIEHARL (not fully specified, also called PD-1-nABP284) [nABP284]	–	–	–	–	–	–	9610 nM	11800 nM	–	–
nABP386 (also: bond at chain A 27 at chain B 6 to a chain's C-terminus, Branched synthetic peptide (Fmoc solid-phase synthesis)) chain 1: SRLKEIANSPTQFWRMVARNTLGNHAKQSLNIEHA chain 2: SHHHRL	0.00293 s⁻¹	39000 M⁻¹ s⁻¹	75.1 nM	–	–	–	3420 nM	–	–	–

Continued, values first:

koff [1]	kon [1]	Kd [2]	Kd [3]	koff [4]	kon [4]	IC50 [5]	Kd [6]	IC50 [7]	Kd [4]	Binder
0.000453 s⁻¹	77600 M⁻¹ s⁻¹	5.84 nM	16.7 nM	0.000486 s⁻¹	29000 M⁻¹ s⁻¹	–	–	–	–	nABP786 (cysteine pairing not given here; also: lactam at chain A 7 at chain B 6 to a chain's C-terminus) chain 1: SHHHRLKLKEIANCSPTQFKC chain 2: SHHHRL
0.00589 s⁻¹	496000 M⁻¹ s⁻¹	11.9 nM	54.2 nM	0.00204 s⁻¹	38900 M⁻¹ s⁻¹	–	–	2580 nM	52.4 nM	nABP486 (also: lactam at chain A 7 at chain B 6 to a chain's C-terminus, Branched synthetic peptide (Fmoc solid-phase synthesis)) chain 1: SHHHRLKLKEIANSPTQFWRMVARNTLGNGAKQSLNIEHA chain 2: SHHHRL
